# Laboratory results reported in US20190360025A1.
# Assays:
# [1] = biological target: glial cell line derived neurotrophic factor (GDNF), R&D Systems 212-GD-010 (UniProt P39905); test: SPR, isoaffinity graph
# [2] = biological target: glial cell line derived neurotrophic factor (GDNF), R&D Systems 212-GD-010 (UniProt P39905); test: c-PLA, buffer; GDNF 1.00E-08 M
# [3] = biological target: glial cell line derived neurotrophic factor (GDNF), R&D Systems 212-GD-010 (UniProt P39905); test: t-PLA, buffer; GDNF 1.00E-14 M
# [4] = biological target: glial cell line derived neurotrophic factor (GDNF), R&D Systems 212-GD-010 (UniProt P39905); test: t-PLA, buffer; GDNF 1.00E-09 M
# [5] = biological target: glial cell line derived neurotrophic factor (GDNF), R&D Systems 212-GD-010 (UniProt P39905); test: SPR (Biacore T200), biotinylated antibody on CAP chip, 1:1 fit
# [6] = biological target: glial cell line derived neurotrophic factor (GDNF), R&D Systems 212-GD-010 (UniProt P39905); test: t-PLA, buffer; GDNF 1.00E-10 M
# [7] = biological target: glial cell line derived neurotrophic factor (GDNF), R&D Systems 212-GD-010 (UniProt P39905); test: c-PLA, buffer; GDNF 1.00E-13 M
# [8] = biological target: glial cell line derived neurotrophic factor (GDNF), R&D Systems 212-GD-010 (UniProt P39905); test: c-PLA, buffer; GDNF 1.00E-09 M
# [9] = biological target: glial cell line derived neurotrophic factor (GDNF), R&D Systems 212-GD-010 (UniProt P39905); test: BLI (Octet RED), antibody on protein G sensors, 1:1 global fit
# [10] = biological target: glial cell line derived neurotrophic factor (GDNF), R&D Systems 212-GD-010 (UniProt P39905); test: c-PLA, buffer; GDNF 1.00E-10 M
# [11] = biological target: glial cell line derived neurotrophic factor (GDNF), R&D Systems 212-GD-010 (UniProt P39905); test: c-PLA, buffer; GDNF 1.00E-11 M
# [12] = biological target: glial cell line derived neurotrophic factor (GDNF), R&D Systems 212-GD-010 (UniProt P39905); test: SPR, off-rate given by the software, beyond the sensitivity range of the instrument
# [13] = biological target: glial cell line derived neurotrophic factor (GDNF), R&D Systems 212-GD-010 (UniProt P39905); test: SPR (Biacore T200), 1:1 global fit
# [14] = biological target: glial cell line derived neurotrophic factor (GDNF), R&D Systems 212-GD-010 (UniProt P39905); test: t-PLA, buffer; GDNF 1.00E-13 M
# [15] = biological target: glial cell line derived neurotrophic factor (GDNF), R&D Systems 212-GD-010 (UniProt P39905); test: t-PLA, buffer; GDNF 1.00E-12 M
# [16] = biological target: glial cell line derived neurotrophic factor (GDNF), R&D Systems 212-GD-010 (UniProt P39905); test: c-PLA, buffer; GDNF 1.00E-14 M
# [17] = biological target: glial cell line derived neurotrophic factor (GDNF), R&D Systems 212-GD-010 (UniProt P39905); test: SPR, value from the software's off-rate, beyond the sensitivity range of the instrument
# [18] = biological target: glial cell line derived neurotrophic factor (GDNF), R&D Systems 212-GD-010 (UniProt P39905); test: c-PLA, buffer; GDNF 1.00E-12 M
# [19] = biological target: glial cell line derived neurotrophic factor (GDNF), R&D Systems 212-GD-010 (UniProt P39905); test: t-PLA, buffer; GDNF 1.00E-08 M
# [20] = biological target: glial cell line derived neurotrophic factor (GDNF), R&D Systems 212-GD-010 (UniProt P39905); test: t-PLA, buffer; GDNF 1.00E-11 M
# [21] = biological target: interleukin 6 (IL-6), R&D Systems 206-IL-010 (UniProt P05231); test: SPR, isoaffinity graph
# Sequence of UniProt P05231 (P05231 30-212 limits assumed): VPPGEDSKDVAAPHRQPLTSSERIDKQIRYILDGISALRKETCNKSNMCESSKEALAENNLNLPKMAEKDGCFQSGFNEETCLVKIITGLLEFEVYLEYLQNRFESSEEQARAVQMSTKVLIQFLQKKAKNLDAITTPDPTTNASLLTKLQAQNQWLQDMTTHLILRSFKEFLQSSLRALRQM
# [22] = biological target: interleukin 6 (IL-6), R&D Systems 206-IL-010 (UniProt P05231); test: t-PLA, buffer; IL-6 1.00E-08 M
# [23] = biological target: interleukin 6 (IL-6), R&D Systems 206-IL-010 (UniProt P05231); test: c-PLA, buffer; IL-6 1.00E-12 M
# [24] = biological target: interleukin 6 (IL-6), R&D Systems 206-IL-010 (UniProt P05231); test: c-PLA, buffer; IL-6 1.00E-10 M
# [25] = biological target: interleukin 6 (IL-6), R&D Systems 206-IL-010 (UniProt P05231); test: SPR (Biacore T200), biotinylated antibody on CAP chip, 1:1 fit
# [26] = biological target: interleukin 6 (IL-6), R&D Systems 206-IL-010 (UniProt P05231); test: t-PLA, buffer; IL-6 1.00E-09 M
# [27] = biological target: interleukin 6 (IL-6), R&D Systems 206-IL-010 (UniProt P05231); test: c-PLA, buffer; IL-6 1.00E-13 M
# [28] = biological target: interleukin 6 (IL-6), R&D Systems 206-IL-010 (UniProt P05231); test: t-PLA, buffer; IL-6 1.00E-10 M
# [29] = biological target: interleukin 6 (IL-6), R&D Systems 206-IL-010 (UniProt P05231); test: c-PLA, buffer; IL-6 1.00E-08 M
# [30] = biological target: interleukin 6 (IL-6), R&D Systems 206-IL-010 (UniProt P05231); test: BLI (Octet RED), antibody on protein G sensors, 1:1 global fit
# [31] = biological target: interleukin 6 (IL-6), R&D Systems 206-IL-010 (UniProt P05231); test: c-PLA, buffer; IL-6 1.00E-11 M
# [32] = biological target: interleukin 6 (IL-6), R&D Systems 206-IL-010 (UniProt P05231); test: t-PLA, buffer; IL-6 1.00E-11 M
# [33] = biological target: interleukin 6 (IL-6), R&D Systems 206-IL-010 (UniProt P05231); test: SPR, off-rate given by the software, beyond the sensitivity range of the instrument
# [34] = biological target: interleukin 6 (IL-6), R&D Systems 206-IL-010 (UniProt P05231); test: t-PLA, buffer; IL-6 1.00E-13 M
# [35] = biological target: interleukin 6 (IL-6), R&D Systems 206-IL-010 (UniProt P05231); test: SPR (Biacore T200), 1:1 global fit
# [36] = biological target: interleukin 6 (IL-6), R&D Systems 206-IL-010 (UniProt P05231); test: t-PLA, buffer; IL-6 1.00E-14 M
# [37] = biological target: interleukin 6 (IL-6), R&D Systems 206-IL-010 (UniProt P05231); test: c-PLA, buffer; IL-6 1.00E-14 M
# [38] = biological target: interleukin 6 (IL-6), R&D Systems 206-IL-010 (UniProt P05231); test: c-PLA, buffer; IL-6 1.00E-09 M
# [39] = biological target: interleukin 6 (IL-6), R&D Systems 206-IL-010 (UniProt P05231); test: t-PLA, buffer; IL-6 1.00E-12 M
# [40] = biological target: interleukin 6 (IL-6), R&D Systems 206-IL-010 (UniProt P05231); test: SPR, value from the software's off-rate, beyond the sensitivity range of the instrument
# Sequence of UniProt P39905 (P39905 78-211 limits assumed): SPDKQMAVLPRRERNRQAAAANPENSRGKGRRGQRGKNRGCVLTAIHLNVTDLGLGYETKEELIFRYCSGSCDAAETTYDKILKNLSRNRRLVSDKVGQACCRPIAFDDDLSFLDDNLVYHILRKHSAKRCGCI
substance,measurement,setting,value
affinity-purified polyclonal anti-GDNF antibody (R&D Systems AF-212-NA),Kd,[1],< 5 pM
same,Counts,[2],214000
same,SBR,[2],14200
same,Counts,[3],1.92e+06
same,SBR,[3],2.8
same,Counts,[4],2.24e+09
same,SBR,[4],3320
same,Kd,[5],< 0.71 pM
same,koff,[5],< 1e-05 s⁻¹
same,kon,[5],1.4e+07 M⁻¹ s⁻¹
same,Counts,[6],6.04e+08
same,SBR,[6],896
same,Counts,[7],172
same,SBR,[7],11
same,Counts,[8],427000
same,SBR,[8],28300
same,Kd,[9],< 2.54 pM
same,koff,[9],< 1e-06 s⁻¹
same,kon,[9],393000 M⁻¹ s⁻¹
same,Counts,[10],59400
same,SBR,[10],3930
same,Counts,[11],3340
same,SBR,[11],221
same,koff,[12],2.34e-06 s⁻¹
same,Kd,[13],< 0.71 pM
same,koff,[13],< 1e-05 s⁻¹
same,kon,[13],1.35e+07 M⁻¹ s⁻¹
same,Counts,[14],7.19e+06
same,SBR,[14],11
same,Counts,[15],6.17e+06
same,SBR,[15],9.1
same,Counts,[16],17
same,SBR,[16],1.1
same,Kd,[17],0.173 pM
same,Counts,[18],283
same,SBR,[18],19
same,Counts,[19],1.02e+09
same,SBR,[19],1520
same,Counts,[20],6.06e+07
same,SBR,[20],90
affinity-purified polyclonal anti-IL-6 antibody (R&D Systems AF-206-NA),Kd,[21],< 5 pM
same,Counts,[22],2.05e+09
same,SBR,[22],1410
same,Counts,[23],141
same,SBR,[23],7.8
same,Counts,[24],30800
same,SBR,[24],1700
same,Kd,[25],< 4.3 pM
same,koff,[25],< 1e-05 s⁻¹
same,kon,[25],2.3e+06 M⁻¹ s⁻¹
same,Counts,[26],3.87e+09
same,SBR,[26],2670
same,Counts,[27],84.3
same,SBR,[27],4.6
same,Counts,[28],3.88e+08
same,SBR,[28],267
same,Counts,[29],137000
same,SBR,[29],7540
same,Kd,[30],< 2.49 pM
same,koff,[30],< 1e-06 s⁻¹
same,kon,[30],402000 M⁻¹ s⁻¹
same,Counts,[31],1980
same,SBR,[31],109
same,Counts,[32],3.72e+07
same,SBR,[32],26
same,koff,[33],4.65e-07 s⁻¹
same,Counts,[34],2.68e+06
same,SBR,[34],1.8
same,Kd,[35],< 4.3 pM
same,koff,[35],< 1e-05 s⁻¹
same,kon,[35],2.33e+06 M⁻¹ s⁻¹
same,Counts,[36],3.03e+06
same,SBR,[36],2.1
same,Counts,[37],55.2
same,SBR,[37],3
same,Counts,[38],312000
same,SBR,[38],17200
same,Counts,[39],1.16e+07
same,SBR,[39],8
same,Kd,[40],0.199 pM
